The values below come from publication PMC3219669.

The target of assay [1] is Gβ1 and YFP-Gγ2 expressed from the Gβ1-2A-YFP-Gγ2 unit. The assay is described as follows: FRET or BRET; FLIM of the mTurquoise donor (phase and modulation lifetimes) in living HeLa cells, room temperature; all three subunits from the single plasmid Gα-IRES-Gβ-2A-Gγ. For orientation: Bioluminescence resonance energy transfer reports proximity on the nanometre scale.
For assay [2] the target is unchanged. Nature of the assay: FRET or BRET; FLIM of the mTurquoise donor (phase and modulation lifetimes) in living HeLa cells, room temperature; all three subunits from the single plasmid Gβ-2A-Gγ-IRES-Gα.

“Gαq-mTurquoiseΔ6 (from UniProt P50148 1-359) (natural protein)”: in assay [1], the FRET efficiency from the modulation lifetime (E τM) came to 7% and the FRET efficiency from the phase lifetime (E τϕ) came out at 14%. In assay [2], this substance showed an FRET efficiency from the modulation lifetime (E τM) of 19% and an FRET efficiency from the phase lifetime (E τϕ) of 27%.
